Results on five molecules are retold here after patent US6416987B1, “Mutants of thymidylate synthase and uses thereof” (Sloan Kettering Institute for Cancer Research, priority 1997, dated 2002).

Entries after “also recorded” stand apart in the source; their conditions may differ.

The test concerns Mouse TS-negative cells (FSthy21). Description: Rescue of TS-negative cells by transfection of human TS cDNAs. The conditions noted are these: for TS catalytic function / complementation of growth of TS-negative cells: selective medium lacking thymidine; for FM3A TS cells surviving by transfection: selective medium without thymidine. The class given is cell-based. An excerpt:
Mouse TS-negative cells (FSthy21) were transfected with a plasmid (pcDNA3hTS*) encoding wild-type or a various mutant human TS enzyme by standard DOTAP transfection procedures. The host cells are deficient in TS, which are unable to survive without exogenous thymidine. […] In contrast, cells were unable to survive with transfection of other 11 human TS variants. For each surviving transfectant, at least 12 individual clones were isolated by soft agar or limiting dilution in 96-well plates. Those clones were expanded to cell lines by growth in normal media. Three cell clones for each transfectant were randomly selected for drug sensitivity assay.

B1: G52S: human TS mutant Gly52→Ser (protein)
chain: MPVAGSELPRRPLPPAAQERDAEPRPPHGELQYLGQIQHILRCGVRKDDRTSTGTLSVFGMQARYSLRDEFPLLTTKRVFWKGVLEELLWFIKGSTNAKELSSKGVKIWDANGSRDFLDSLGFSTREEGDLGPVYGFQWRHFGAEYRDMESDYSGQGVDQLQRVIDTIKTNPDDRRIIMCAWNPRDLPLMALPPCHALCQFYVVNSELSCQLYQRSGDMGLGVPFNIASYALLTYMIAHITGLKPGDFIHTLGDAHIYLNHIEPLKIQLQREPRPFPKLRILRKVGKIDDFKAEDFQIEGYNPHPTIKMEMAV
Turning to B1, the “TS catalytic function / complementation of growth of TS-negative cells” value (“TS catalytic function / complementation” below) is given as “able to complement growth; also recorded: retain TS catalytic function; also recorded: able to allow growth” and the “FM3A TS cells surviving by transfection” value is recorded as “yes”.

B2: F225L: human TS mutant Phe225→Leu (protein)
chain: MPVAGSELPRRPLPPAAQERDAEPRPPHGELQYLGQIQHILRCGVRKDDRTGTGTLSVFGMQARYSLRDEFPLLTTKRVFWKGVLEELLWFIKGSTNAKELSSKGVKIWDANGSRDFLDSLGFSTREEGDLGPVYGFQWRHFGAEYRDMESDYSGQGVDQLQRVIDTIKTNPDDRRIIMCAWNPRDLPLMALPPCHALCQFYVVNSELSCQLYQRSGDMGLGVPLNIASYALLTYMIAHITGLKPGDFIHTLGDAHIYLNHIEPLKIQLQREPRPFPKLRILRKVGKIDDFKAEDFQIEGYNPHPTIKMEMAV
Take B2: the “TS catalytic function / complementation” value is recorded as “able to complement growth; also recorded: active enzymes” and the “FM3A TS cells surviving by transfection” value is listed as “yes”.

B3: I108F: human TS mutant Ile108→Phe (protein)
chain: MPVAGSELPRRPLPPAAQERDAEPRPPHGELQYLGQIQHILRCGVRKDDRTGTGTLSVFGMQARYSLRDEFPLLTTKRVFWKGVLEELLWFIKGSTNAKELSSKGVKFWDANGSRDFLDSLGFSTREEGDLGPVYGFQWRHFGAEYRDMESDYSGQGVDQLQRVIDTIKTNPDDRRIIMCAWNPRDLPLMALPPCHALCQFYVVNSELSCQLYQRSGDMGLGVPFNIASYALLTYMIAHITGLKPGDFIHTLGDAHIYLNHIEPLKIQLQREPRPFPKLRILRKVGKIDDFKAEDFQIEGYNPHPTIKMEMAV
For B3, the “TS catalytic function / complementation” value is “able to complement growth; also recorded: functional” and the “FM3A TS cells surviving by transfection” value was “yes”.

B4: L221A: human TS mutant Leu221→Ala (protein)
chain: MPVAGSELPRRPLPPAAQERDAEPRPPHGELQYLGQIQHILRCGVRKDDRTGTGTLSVFGMQARYSLRDEFPLLTTKRVFWKGVLEELLWFIKGSTNAKELSSKGVKIWDANGSRDFLDSLGFSTREEGDLGPVYGFQWRHFGAEYRDMESDYSGQGVDQLQRVIDTIKTNPDDRRIIMCAWNPRDLPLMALPPCHALCQFYVVNSELSCQLYQRSGDMGAGVPFNIASYALLTYMIAHITGLKPGDFIHTLGDAHIYLNHIEPLKIQLQREPRPFPKLRILRKVGKIDDFKAEDFQIEGYNPHPTIKMEMAV
Take B4: the “TS catalytic function / complementation” value was “able to complement growth” and the “FM3A TS cells surviving by transfection” value is on record as “yes”.

B5: F225Y: human TS mutant Phe225→Tyr (protein)
chain: MPVAGSELPRRPLPPAAQERDAEPRPPHGELQYLGQIQHILRCGVRKDDRTGTGTLSVFGMQARYSLRDEFPLLTTKRVFWKGVLEELLWFIKGSTNAKELSSKGVKIWDANGSRDFLDSLGFSTREEGDLGPVYGFQWRHFGAEYRDMESDYSGQGVDQLQRVIDTIKTNPDDRRIIMCAWNPRDLPLMALPPCHALCQFYVVNSELSCQLYQRSGDMGLGVPYNIASYALLTYMIAHITGLKPGDFIHTLGDAHIYLNHIEPLKIQLQREPRPFPKLRILRKVGKIDDFKAEDFQIEGYNPHPTIKMEMAV
In the case of B5, the “TS catalytic function / complementation” value is listed as “able to complement growth; also recorded: active enzymes” and the “FM3A TS cells surviving by transfection” value was “yes”.
